This is an account of results in the supplement of paper PMC10567573.

The labels stand for the following.
B1: FAM46D (parent)
chain: FQEAMTHLQHKLICTRKPEEIRGG
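Note: lentivirally expressed fusions sorted by FACS into six bins by GFP to DsRed ratio, PSI derived from sequencing read proportions per bin multiplied by bin number.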

The variants in the data set derive from B1. The experiment in a line: protein stability index of a GFP-peptide fusion (GPS, HEK-293T) (PSI 1-6); higher = more stable. To be noted: c terminus: a fixed tail appended.
As to FQEQMTHLQHKLICTRKPEEIRGG [A4Q], the protein stability index was 2.98.
For the variant FQEHMTHLQHKLICTRKPEEIRGG [A4H], the protein stability index was found to be 2.95.
The figure for FQESMTHLQHKLICTRKPEEIRGG [A4S] is 2.99; for FQEWMTHLQHKLICTRKPEEIRGG [A4W] it is 1.58.
The figure for FQEDMTHLQHKLICTRKPEEIRGG [A4D] is 2.8.
On to FQECMTHLQHKLICTRKPEEIRGG [A4C], for which the protein stability index turned out to be 2.61.
The figure for FQEAMTHLQHRLICTRKPEEIRGG [K11R] is 2.83.
On to FQEAMTHLQHTLICTRKPEEIRGG [K11T], for which the protein stability index amounted to 2.72.
With FQEAMTHLQHYLICTRKPEEIRGG [K11Y], the protein stability index worked out at 1.66.
The figure for FQEAMTHLQHILICTRKPEEIRGG [K11I] is 2.03; for FQEAMTHLQHFLICTRKPEEIRGG [K11F] it is 2.16; for FQEAMTHLQHQLICTRKPEEIRGG [K11Q] it is 2.41.
The figure for FQEAMTHLQHALICTRKPEEIRGG [K11A] is 2.54; for FQEAMTHLQRKLICTRKPEEIRGG [H10R] it is 2.71.
Consider FQEAMTHLQGKLICTRKPEEIRGG [H10G], for which the protein stability index worked out at 2.67.
The figure for FQEAMTHLQEKLICTRKPEEIRGG [H10E] is 3.79.
The figure for FQEAMTHLQNKLICTRKPEEIRGG [H10N] is 2.93.
The figure for FQEAMTHLQVKLICTRKPEEIRGG [H10V] is 1.92.
In the case of FQEAMTHLQPKLICTRKPEEIRGG [H10P], the protein stability index stood at 3.16.
The figure for FQCAMTHLQHKLICTRKPEEIRGG [E3C] is 1.64; for FQKAMTHLQHKLICTRKPEEIRGG [E3K] it is 2.17.
Consider FQSAMTHLQHKLICTRKPEEIRGG [E3S], for which the protein stability index was found to be 1.91.
In the case of FQHAMTHLQHKLICTRKPEEIRGG [E3H], the protein stability index was determined as 2.21.
With FQDAMTHLQHKLICTRKPEEIRGG [E3D], the protein stability index was found to be 2.17.
The figure for FQYAMTHLQHKLICTRKPEEIRGG [E3Y] is 2.3; for FPEAMTHLQHKLICTRKPEEIRGG [Q2P] it is 2.53; for FVEAMTHLQHKLICTRKPEEIRGG [Q2V] it is 1.56.
The figure for FDEAMTHLQHKLICTRKPEEIRGG [Q2D] is 4.05; for FCEAMTHLQHKLICTRKPEEIRGG [Q2C] it is 1.76; for FGEAMTHLQHKLICTRKPEEIRGG [Q2G] it is 3.01.
Consider FMEAMTHLQHKLICTRKPEEIRGG [Q2M], for which the protein stability index was determined as 2.28.
The figure for FYEAMTHLQHKLICTRKPEEIRGG [Q2Y] is 2.19.
The figure for FNEAMTHLQHKLICTRKPEEIRGG [Q2N] is 3.38; for FSEAMTHLQHKLICTRKPEEIRGG [Q2S] it is 2.74; for FFEAMTHLQHKLICTRKPEEIRGG [Q2F] it is 1.6.
The figure for FTEAMTHLQHKLICTRKPEEIRGG [Q2T] is 2.1; for FQEAMTHLQHKLICYRKPEEIRGG [T15Y] it is 2.17.
For the variant FQEAMTHLQHKLICIRKPEEIRGG [T15I], the protein stability index was 2.21.
The figure for FQEAMTHLQHKLICARKPEEIRGG [T15A] is 3.06; for FQEAMTHLQHKLICTQKPEEIRGG [R16Q] it is 3.16; for FQEAMTHLQHKLICTPKPEEIRGG [R16P] it is 2.87.
Consider FQEAMTHLQHKLICTCKPEEIRGG [R16C], for which the protein stability index was determined as 1.84.
As for FQEAMTHLQHKLICTTKPEEIRGG [R16T], the protein stability index came out at 2.56.
With FQEAMTHLQHKLICTDKPEEIRGG [R16D], the protein stability index is 2.68.
Take FQEAMTHLQHKLICTLKPEEIRGG [R16L]: the protein stability index stood at 2.55.
The figure for FQEAMTHLQHKLICTMKPEEIRGG [R16M] is 2.21; for FQEAMTHLQHKLICTGKPEEIRGG [R16G] it is 2.6.
In the case of FQEAMTHLQHKLICTSKPEEIRGG [R16S], the protein stability index was 2.75.
In the case of FQEAMTHLQHKLECTRKPEEIRGG [I13E], the protein stability index stood at 3.67.
The figure for FQEAMTHLQHKLACTRKPEEIRGG [I13A] is 2.76; for FQEAMTHLQHKLLCTRKPEEIRGG [I13L] it is 2.13; for FQEAMTHLQHKLTCTRKPEEIRGG [I13T] it is 2.52.
Take FQEAMTHLQHKLQCTRKPEEIRGG [I13Q]: the protein stability index was found to be 3.58.
With FQEAMTHLHHKLICTRKPEEIRGG [Q9H], the protein stability index was found to be 2.67.
Consider FQEAMTHLAHKLICTRKPEEIRGG [Q9A], for which the protein stability index amounted to 2.25.
The figure for FQEAMTHLDHKLICTRKPEEIRGG [Q9D] is 2.89; for FQEAMTHLMHKLICTRKPEEIRGG [Q9M] it is 2.21; for FQEAMTHLFHKLICTRKPEEIRGG [Q9F] it is 2.61.
With FQEAMTHLQHKGICTRKPEEIRGG [L12G], the protein stability index is 2.72.
On to FQEAMTHLQHKIICTRKPEEIRGG [L12I], for which the protein stability index worked out at 2.78.
The figure for FQEAMTHLQHKQICTRKPEEIRGG [L12Q] is 3.87.
Consider FQEAMTHLQHKHICTRKPEEIRGG [L12H], for which the protein stability index worked out at 3.44.
For the variant FQEAMTHLQHKTICTRKPEEIRGG [L12T], the protein stability index came to 3.99.
The figure for FQEAMTHLQHKPICTRKPEEIRGG [L12P] is 2.8; for FQEAMTHLQHKEICTRKPEEIRGG [L12E] it is 3.27; for FQEAMTHLQHKWICTRKPEEIRGG [L12W] it is 1.27.
Take FQEAMTHLQHKLICTRKPEKIRGG [E20K]: the protein stability index was 3.26.
The figure for FQEAMTHLQHKLICTRKPEAIRGG [E20A] is 2.15; for FQEAMTHLQHKLICTRKPEGIRGG [E20G] it is 1.99.
The figure for FQEAMTHLQHKLICTRKPENIRGG [E20N] is 2.64.
The figure for FQEAMTHLQHKLICTRKPEDIRGG [E20D] is 2.69; for FQEAMTHLQHKLICTRKPELIRGG [E20L] it is 2.05; for FQEAMTHLQHKLICTRKPEHIRGG [E20H] it is 1.89.
Take FQEAMTHLQHKLICTRKPECIRGG [E20C]: the protein stability index was 2.3.
The figure for FQEAMTHLQHKLICTRKPETIRGG [E20T] is 2.5; for FQEAMTHLQHKLICTRKPEEISGG [R22S] it is 2.66.
For the variant FQEAMTHLQHKLICTRKPEEIIGG [R22I], the protein stability index is 2.41.
In the case of FQEAMTHLQHKLICTREPEEIRGG [K17E], the protein stability index came to 3.03.
FQEAMTHLQHKLICTRNPEEIRGG [K17N]: the protein stability index is 2.9.
Turning to FQEAMTHLQHKLICTRYPEEIRGG [K17Y], the protein stability index was 1.85.
The figure for FQEAMTHLQHKLICTRKPEEIRMG [G23M] is 2.6.
The figure for FQEAMTHLQHKLICTRKPEEIRNG [G23N] is 3.01; for FQEAMTHLQHKLICTRKPEEIRKG [G23K] it is 3.19; for FQEAMTHLQHKLICTRKPEEIRDG [G23D] it is 3.08.
On to FQEAMTHLQHKLICTRKPEEIRWG [G23W], for which the protein stability index was 2.48.
As for AQEAMTHLQHKLICTRKPEEIRGG [F1A], the protein stability index stood at 4.16.
The figure for RQEAMTHLQHKLICTRKPEEIRGG [F1R] is 3.82; for VQEAMTHLQHKLICTRKPEEIRGG [F1V] it is 4.64.
Take DQEAMTHLQHKLICTRKPEEIRGG [F1D]: the protein stability index came out at 4.81.
The figure for CQEAMTHLQHKLICTRKPEEIRGG [F1C] is 3.98; for WQEAMTHLQHKLICTRKPEEIRGG [F1W] it is 3.28; for FQEAGTHLQHKLICTRKPEEIRGG [M5G] it is 3.54.
As to FQEAETHLQHKLICTRKPEEIRGG [M5E], the protein stability index turned out to be 4.43.
As to FQEAKTHLQHKLICTRKPEEIRGG [M5K], the protein stability index came out at 2.94.
